Source: paper PMC10208975, “TCF7L2 acts as a molecular switch in midbrain to control mammal vocalization through its DNA binding domain but not transcription activation domain”

Tests used:
Details in all cases: protein: recombinant; tags: MBP (pMAL-cRI); only one strand given
[1] = molecular target: TCF7L2 HMG box Y337S (MBP fusion) (UniProt Q924A0 327-395, Y337S); assay: EMSA; 50 mM NaCl, 20 mM Tris-HCl (pH not stated), 1 mM DTT, 1 mM MgCl2, 5% glycerol, 1 h at 25 C; 6% native PAGE
[2] = molecular target: TCF7L2 HMG box Y337E (MBP fusion) (UniProt Q924A0 327-395, Y337E); assay: as above
[3] = molecular target: TCF7L2 HMG box Y337H (MBP fusion) (UniProt Q924A0 327-395, Y337H); assay: as above
[4] = molecular target: TCF7L2 HMG box WT (MBP fusion) (UniProt Q924A0 327-395); assay: EMSA; dose-dependent; 50 mM NaCl, 20 mM Tris-HCl (pH not stated), 1 mM DTT, 1 mM MgCl2, 5% glycerol, 1 h at 25 C; 6% native PAGE
[5] = molecular target: TCF7L2 HMG box Y337F (MBP fusion) (UniProt Q924A0 327-395, Y337F); assay: EMSA; binding largely retained; 50 mM NaCl, 20 mM Tris-HCl (pH not stated), 1 mM DTT, 1 mM MgCl2, 5% glycerol, 1 h at 25 C; 6% native PAGE
Chain of TCF7L2 HMG box Y337F (MBP fusion) (Q924A0 327-395 Y337F): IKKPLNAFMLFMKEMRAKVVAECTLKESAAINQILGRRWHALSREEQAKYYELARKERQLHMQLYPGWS

Chain of TCF7L2 HMG box WT (MBP fusion) (Q924A0 327-395): as the sequence (Q924A0 327-395 Y337F) above, with F11Y counted along it
Chain of TCF7L2 HMG box Y337S (MBP fusion) (Q924A0 327-395 Y337S): as the sequence (Q924A0 327-395 Y337F) above, with F11S counted along it
Chain of TCF7L2 HMG box Y337E (MBP fusion) (Q924A0 327-395 Y337E): as the sequence (Q924A0 327-395 Y337F) above, with F11E counted along it
Chain of TCF7L2 HMG box Y337H (MBP fusion) (Q924A0 327-395 Y337H): as the sequence (Q924A0 327-395 Y337F) above, with F11H counted along it

B1: HMG-binding sequence probe (dsDNA)
DNA 1: TAGACGTAGGGCACCCTTTGAAGCTCTCCCTCGA
DNA 2: TCGAGGGAGAGCTTCAAAGGGTGCCCTACGTCTA
binding result [1]: no binding
binding result [2]: no binding
binding result [3]: no binding
binding result [4]: binds
binding result [5]: binds
